B1: Solute carrier family 12 member 1 (Homo sapiens), Q13621 (parent)
chain: MSLNNSSNVFLDSVPSNTNRFQVSVINENHESSAAADDNTDPPHYEETSFGDEAQKRLRISFRPGNQECYDNFLQSGETAKTDASFHAYDSHTNTYYLQTFGHNTMDAVPKIEYYRNTGSISGPKVNRPSLLEIHEQLAKNVAVTPSSADRVANGDGIPGDEQAENKEDDQAGVVKFGWVKGVLVRCMLNIWGVMLFIRLSWIVGEAGIGLGVLIILLSTMVTSITGLSTSAIATNGFVRGGGAYYLISRSLGPEFGGSIGLIFAFANAVAVAMYVVGFAETVVDLLKESDSMMVDPTNDIRIIGSITVVILLGISVAGMEWEAKAQVILLVILLIAIANFFIGTVIPSNNEKKSRGFFNYQASIFAENFGPRFTKGEGFFSVFAIFFPAATGILAGANISGDLEDPQDAIPRGTMLAIFITTVAYLGVAICVGACVVRDATGNMNDTIISGMNCNGSAACGLGYDFSRCRHEPCQYGLMNNFQVMSMVSGFGPLITAGIFSATLSSALASLVSAPKVFQALCKDNIYKALQFFAKGYGKNNEPLRGYILTFLIAMAFILIAELNTIAPIISNFFLASYALINFSCFHASYAKSPGWRPAYGIYNMWVSLFGAVLCCAVMFVINWWAAVITYVIEFFLYVYVTCKKPDVNWGSSTQALSYVSALDNALELTTVEDHVKNFRPQCIVLTGGPMTRPALLDITHAFTKNSGLCICCEVFVGPRKLCVKEMNSGMAKKQAWLIKNKIKAFYAAVAADCFRDGVRSLLQASGLGRMKPNTLVIGYKKNWRKAPLTEIENYVGIIHDAFDFEIGVVIVRISQGFDISQVLQVQEELERLEQERLALEATIKDNECEEESGGIRGLFKKAGKLNITKTTPKKDGSINTSQSMHVGEFNQKLVEASTQFKKKQEKGTIDVWWLFDDGGLTLLIPYILTLRKKWKDCKLRIYVGGKINRIEEEKIVMASLLSKFRIKFADIHIIGDINIRPNKESWKVFEEMIEPYRLHESCKDLTTAEKLKRETPWKITDAELEAVKEKSYRQVRLNELLQEHSRAANLIVLSLPVARKGSISDLLYMAWLEILTKNLPPVLLVRGNHKNVLTFYS
B2: Solute carrier family 12 member 6 (Mus musculus), Q924N4-1 (parent)
chain: MHPPEATTKMSSVRFMVTPTKIDDIPGLSDTSPDLSSRSSSRVRFSSRESVPETSRSEPMSELSGATTSLATVALDPSSDRTSNPQDVTEDPSQNSITGEHSQLLDDGHKKARNAYLNNSNYEEGDEYFDKNLALFEEEMDTRPKVSSLLNRMANYTNLTQGAKEHEEAENITEGKKKPTKSPQMGTFMGVYLPCLQNIFGVILFLRLTWVVGTAGILQAFAIVLICCCCTMLTAISMSAIATNGVVPAGGSYFMISRALGPEFGGAVGLCFYLGTTFAAAMYILGAIEIFLVYIVPRAAIFRSDDALKESAAMLNNMRVYGTAFLVLMVLVVFIGVRYVNKFASLFLACVIVSILAIYAGAIKSSFAPPHFPVCMLGNRTLSSRHLDICSKTKEVDNMTVPSKLWGFFCNSSQFFNATCDEYFVHNNVISIQGIPGLASGIITENLWSNYLPKGEIIEKPSAKSSDVLGNLNHEYVLADITTSFTLLVGIFFPSVTGIMAGSNRSGDLKDAQKSIPIGTILAILTTSFVYLSNVVLFGACIEGVVLRDKFGDAVKGNLVVGTLSWPSPWVIVIGSFFSTCGAGLQSLTGAPRLLQAIAKDNIIPFLRVFGHSKANGEPTWALLLTAAIAELGILIASLDLVAPILSMFFLMCYLFVNLACALQTLLRTPNWRPRFRYYHWALSFMGMSICLALMFISSWYYAIVAMVIAGMIYKYIEYQGAEKEWGDGIRGLSLSAARFALLRLEEGPPHTKNWRPQLLVLLKLDEDLHVKHPRLLTFASQLKAGKGLTIVGSVIVGNFLENYGDALAAEQTIKHLMEAEKVKGFCQLVVAAKLKEGISHLIQSCGLGGMKHNTVVMGWPNGWRQSEDARAWKTFIGTVRVTTAAHLALLVAKNVSFFPSNVEQFSEGNIDVWWIVHDGGMLMLLPFLLKQHKVWRKCSIRIFTVAQLEDNSIQMKKDLATFLYHLRIEAEVEVVEMHDSDISAYTYERTLMMEQRSQMLRHMRLSKTERDREAQLVKDRNSMLRLTSIGSDEDEETETYQEKVHMTWTKDKYMASRGQKVKSMEGFQDLLNMRPDQSNVRRMHTAVKLNEVIVNKSHEAKLVLLNMPGPPRNPEGDENYMEFLEVLTEGLERVLLVRGGGSEVITIYS

Columns and labels:
[1] = variants of: B1; conditions: with stk39_mouse Stk39, Q9Z1W9
[2] = variants of: B1; conditions: with oxsr1_mouse Oxsr1, Q6P9R2
Target sequence in this assay (Q6P9R2 whole entry): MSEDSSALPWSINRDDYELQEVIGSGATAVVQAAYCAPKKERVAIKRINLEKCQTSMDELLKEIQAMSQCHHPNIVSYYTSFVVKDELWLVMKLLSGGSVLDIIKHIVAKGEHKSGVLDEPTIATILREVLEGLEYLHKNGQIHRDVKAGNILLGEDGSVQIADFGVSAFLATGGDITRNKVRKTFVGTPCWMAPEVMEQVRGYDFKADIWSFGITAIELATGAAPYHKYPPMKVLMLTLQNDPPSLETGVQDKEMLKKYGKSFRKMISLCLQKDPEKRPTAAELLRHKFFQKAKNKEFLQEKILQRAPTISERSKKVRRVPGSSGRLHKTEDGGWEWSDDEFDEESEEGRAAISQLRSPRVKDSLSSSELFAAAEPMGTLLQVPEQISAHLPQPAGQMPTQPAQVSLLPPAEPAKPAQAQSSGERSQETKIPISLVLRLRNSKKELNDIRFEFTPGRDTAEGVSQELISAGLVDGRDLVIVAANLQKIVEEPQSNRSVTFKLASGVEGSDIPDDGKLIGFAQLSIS

[3] = variants of: B2; conditions: with oxsr1_mouse Oxsr1, Q6P9R2; remark: listed apart in the source
Target sequence in this assay (Q6P9R2 whole entry): as above

[4] = variants of: B2; conditions: with stk39_mouse Stk39, Q9Z1W9; remark: listed apart in the source

Variant	effect of a mutation on the interaction [1]	effect of a mutation on the interaction [2]	effect of a mutation on the interaction [3]	effect of a mutation on the interaction [4]
R20A	decreasing interaction	decreasing interaction	–	–
F21A	decreasing interaction	decreasing interaction	–	–
V23A	decreasing interaction	decreasing interaction	–	–
S24A	decreasing interaction	decreasing interaction	–	–
V25A	decreasing interaction	decreasing interaction	–	–
N27A	decreasing interaction	decreasing interaction	–	–
E28A	decreasing interaction	decreasing interaction	–	–
V17A	–	–	decreasing interaction	decreasing interaction
I22A	–	–	decreasing interaction	decreasing interaction
F15A	–	–	decreasing interaction	decreasing interaction
P19A	–	–	decreasing interaction	decreasing interaction
R14A	–	–	decreasing interaction	decreasing interaction
K21A	–	–	decreasing interaction	decreasing interaction
